Measured values as given in PMC8126848 (Proceedings of the National Academy of Sciences of the …, 2021).

Target: soluble ectodomain of ICAM-1 (intercellular adhesion molecule-1), domains D1 to D5 (UniProt P05362 28-480)
Assay: cryo-EM structure

Chain of soluble ectodomain of ICAM-1 (intercellular adhesion molecule-1), domains D1 to D5 (P05362 28-480): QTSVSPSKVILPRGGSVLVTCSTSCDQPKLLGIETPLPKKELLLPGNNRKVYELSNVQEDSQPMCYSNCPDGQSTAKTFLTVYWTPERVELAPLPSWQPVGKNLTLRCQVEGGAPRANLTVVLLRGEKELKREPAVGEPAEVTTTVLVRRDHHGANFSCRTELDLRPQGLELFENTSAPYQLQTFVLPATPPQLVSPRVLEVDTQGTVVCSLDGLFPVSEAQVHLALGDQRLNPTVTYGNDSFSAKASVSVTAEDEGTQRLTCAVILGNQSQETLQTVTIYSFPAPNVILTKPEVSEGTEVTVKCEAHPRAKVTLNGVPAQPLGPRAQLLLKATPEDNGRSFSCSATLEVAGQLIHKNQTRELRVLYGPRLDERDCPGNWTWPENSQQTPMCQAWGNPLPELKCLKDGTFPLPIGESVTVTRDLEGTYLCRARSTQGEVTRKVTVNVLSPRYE

B1: rhinovirus 14 capsid protein VP2 (natural protein, rhinovirus 14 (strain 1059), UniProt P03303 70-331, looked up)
chain: SPNVEACGYSDRVQQITLGNSTITTQEAANAVVCYAEWPEYLPDVDASDVNKTSKPDTSVCRFYTLDSKTWTTGSKGWCWKLPDALKDMGVFGQNMFFHSLGRSGYTVHVQCNATKFHSGCLLVVVIPEHQLASHEGGNVSVKYTFTHPGERGIDLSSANEVGGPVKDVIYNMNGTLLGNLLIFPHQFINLRTNNTATIVIPYINSVPIDSMTRHNNVSLMVIPIAPLTVPTGATPSLPITVTIAPMCTEFSGIRSKSIVPQ
- binding result: binds
